Experimental data published in US20150344570A1 (published 2015).

T1: FcγRIIb, extracellular domain with C-terminal His tag (human, UniProt P31994 43-217)
T1 construct: extracellular domain; also called FcgRIIb; 2b; not shown: His tag at the C terminus
T1 sequence (looked up): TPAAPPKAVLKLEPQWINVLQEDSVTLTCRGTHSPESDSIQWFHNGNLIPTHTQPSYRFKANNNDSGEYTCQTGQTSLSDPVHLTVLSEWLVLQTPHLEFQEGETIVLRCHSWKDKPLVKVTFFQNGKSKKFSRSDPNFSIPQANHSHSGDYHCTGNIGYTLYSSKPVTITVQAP

T2: FcγRIIa H (FcγRIIa, allotype with His at position 131), extracellular domain with C-terminal His tag (human, UniProt P12318 34-217)
T2 construct: extracellular domain; also called FcgRIIa H; 2aH; not shown: His tag at the C terminus
T2 sequence (looked up): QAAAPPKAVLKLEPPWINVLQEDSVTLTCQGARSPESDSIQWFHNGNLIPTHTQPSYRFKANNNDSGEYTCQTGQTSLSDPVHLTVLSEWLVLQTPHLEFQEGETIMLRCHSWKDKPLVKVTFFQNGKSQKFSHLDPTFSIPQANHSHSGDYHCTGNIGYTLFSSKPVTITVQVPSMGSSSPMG


What was measured:
[1] = molecular target: T1, FcγRIIb, extracellular domain with …; assay: SPR (Biacore), relative binding vs GpH7-A5/GpH7-B3/GpL16-k0
[2] = molecular target: T2, FcγRIIa H (FcγRIIa, allotype with His …); assay: as above
[3] = molecular target: T2, FcγRIIa H (FcγRIIa, allotype with His …); assay: SPR (Biacore); He/Con_2aH divided by He/Con_2b (FcγRIIb)

| Binder | He/Con_2b [1] | He/Con_2aH [2] | He_2aH/2b (IIaH/IIb) [3] [ratio] |
| --- | --- | --- | --- |
| GpH7-A5/GpH7-B3 variant A330_05P/GpL16-k0 (antibody, human IgG1, kappa, Heterodimerized anti-glypican-3 IgG1; mutation in one H chain only; also called He Ab) heavy 1: not shown heavy 2: not shown light: DIVMTQSPLSLPVTPGEPASISCQASESLVHSNRNTYLHWYLQKPGQSPQLLIYKVSNRFSGVPDRFSGSGSGTDFTLKISRVEAEDVGVYYCSQNTHVPPTFGQGTKVEIERTVAAPSVFIFPPSDEQLKSGTASVVCLLNNFYPREAKVQWKVDNALQSGNSQESVTEQDSKDSTYSLSSTLTLSKADYEKHKVYACEVTHQGLSSPVTKSFNRGEC | 137 % of HeCon Ab (=100) | 85.7 % of HeCon Ab (=100) | 0.63 |
| GpH7-A5/GpH7-B3 variant A327_18N/GpL16-k0 (antibody, human IgG1, kappa, Heterodimerized anti-glypican-3 IgG1; mutation in one H chain only; also called He Ab) heavy 1: not shown heavy 2: not shown light: DIVMTQSPLSLPVTPGEPASISCQASESLVHSNRNTYLHWYLQKPGQSPQLLIYKVSNRFSGVPDRFSGSGSGTDFTLKISRVEAEDVGVYYCSQNTHVPPTFGQGTKVEIERTVAAPSVFIFPPSDEQLKSGTASVVCLLNNFYPREAKVQWKVDNALQSGNSQESVTEQDSKDSTYSLSSTLTLSKADYEKHKVYACEVTHQGLSSPVTKSFNRGEC | 113 % of HeCon Ab (=100) | 66.8 % of HeCon Ab (=100) | 0.59 |
| GpH7-A5/GpH7-B3 variant L328_10E/GpL16-k0 (antibody, human IgG1, kappa, Heterodimerized anti-glypican-3 IgG1; mutation in one H chain only; also called He Ab) heavy 1: not shown heavy 2: not shown light: DIVMTQSPLSLPVTPGEPASISCQASESLVHSNRNTYLHWYLQKPGQSPQLLIYKVSNRFSGVPDRFSGSGSGTDFTLKISRVEAEDVGVYYCSQNTHVPPTFGQGTKVEIERTVAAPSVFIFPPSDEQLKSGTASVVCLLNNFYPREAKVQWKVDNALQSGNSQESVTEQDSKDSTYSLSSTLTLSKADYEKHKVYACEVTHQGLSSPVTKSFNRGEC | 172 % of HeCon Ab (=100) | 55.5 % of HeCon Ab (=100) | 0.32 |
| GpH7-A5/GpH7-B3 variant L328_05P/GpL16-k0 (antibody, human IgG1, kappa, Heterodimerized anti-glypican-3 IgG1; mutation in one H chain only; also called He Ab) heavy 1: not shown heavy 2: not shown light: DIVMTQSPLSLPVTPGEPASISCQASESLVHSNRNTYLHWYLQKPGQSPQLLIYKVSNRFSGVPDRFSGSGSGTDFTLKISRVEAEDVGVYYCSQNTHVPPTFGQGTKVEIERTVAAPSVFIFPPSDEQLKSGTASVVCLLNNFYPREAKVQWKVDNALQSGNSQESVTEQDSKDSTYSLSSTLTLSKADYEKHKVYACEVTHQGLSSPVTKSFNRGEC | 65.1 % of HeCon Ab (=100) | 45.4 % of HeCon Ab (=100) | 0.7 |
| GpH7-A5/GpH7-B3 variant I332_10E/GpL16-k0 (antibody, human IgG1, kappa, Heterodimerized anti-glypican-3 IgG1; mutation in one H chain only; also called He Ab) heavy 1: not shown heavy 2: not shown light: DIVMTQSPLSLPVTPGEPASISCQASESLVHSNRNTYLHWYLQKPGQSPQLLIYKVSNRFSGVPDRFSGSGSGTDFTLKISRVEAEDVGVYYCSQNTHVPPTFGQGTKVEIERTVAAPSVFIFPPSDEQLKSGTASVVCLLNNFYPREAKVQWKVDNALQSGNSQESVTEQDSKDSTYSLSSTLTLSKADYEKHKVYACEVTHQGLSSPVTKSFNRGEC | 142 % of HeCon Ab (=100) | 108 % of HeCon Ab (=100) | 0.76 |

Further lines, results first:

| He/Con_2b [1] | He/Con_2aH [2] | He_2aH/2b (IIaH/IIb) [3] [ratio] | Binder |
| --- | --- | --- | --- |
| 89.4 % of HeCon Ab (=100) | 45.6 % of HeCon Ab (=100) | 0.51 | GpH7-A5/GpH7-B3 variant A327_14T/GpL16-k0 (antibody, human IgG1, kappa, Heterodimerized anti-glypican-3 IgG1; mutation in one H chain only; also called He Ab) heavy 1: not shown heavy 2: not shown light: DIVMTQSPLSLPVTPGEPASISCQASESLVHSNRNTYLHWYLQKPGQSPQLLIYKVSNRFSGVPDRFSGSGSGTDFTLKISRVEAEDVGVYYCSQNTHVPPTFGQGTKVEIERTVAAPSVFIFPPSDEQLKSGTASVVCLLNNFYPREAKVQWKVDNALQSGNSQESVTEQDSKDSTYSLSSTLTLSKADYEKHKVYACEVTHQGLSSPVTKSFNRGEC |
| 140 % of HeCon Ab (=100) | 91.3 % of HeCon Ab (=100) | 0.65 | GpH7-A5/GpH7-B3 variant A327_10E/GpL16-k0 (antibody, human IgG1, kappa, Heterodimerized anti-glypican-3 IgG1; mutation in one H chain only; also called He Ab) heavy 1: not shown heavy 2: not shown light: DIVMTQSPLSLPVTPGEPASISCQASESLVHSNRNTYLHWYLQKPGQSPQLLIYKVSNRFSGVPDRFSGSGSGTDFTLKISRVEAEDVGVYYCSQNTHVPPTFGQGTKVEIERTVAAPSVFIFPPSDEQLKSGTASVVCLLNNFYPREAKVQWKVDNALQSGNSQESVTEQDSKDSTYSLSSTLTLSKADYEKHKVYACEVTHQGLSSPVTKSFNRGEC |
| 142 % of HeCon Ab (=100) | 104 % of HeCon Ab (=100) | 0.73 | GpH7-A5/GpH7-B3 variant L328_06M/GpL16-k0 (antibody, human IgG1, kappa, Heterodimerized anti-glypican-3 IgG1; mutation in one H chain only; also called He Ab) heavy 1: not shown heavy 2: not shown light: DIVMTQSPLSLPVTPGEPASISCQASESLVHSNRNTYLHWYLQKPGQSPQLLIYKVSNRFSGVPDRFSGSGSGTDFTLKISRVEAEDVGVYYCSQNTHVPPTFGQGTKVEIERTVAAPSVFIFPPSDEQLKSGTASVVCLLNNFYPREAKVQWKVDNALQSGNSQESVTEQDSKDSTYSLSSTLTLSKADYEKHKVYACEVTHQGLSSPVTKSFNRGEC |
| 193 % of HeCon Ab (=100) | 90 % of HeCon Ab (=100) | 0.47 | GpH7-A5/GpH7-B3 variant L328_15Y/GpL16-k0 (antibody, human IgG1, kappa, Heterodimerized anti-glypican-3 IgG1; mutation in one H chain only; also called He Ab) heavy 1: not shown heavy 2: not shown light: DIVMTQSPLSLPVTPGEPASISCQASESLVHSNRNTYLHWYLQKPGQSPQLLIYKVSNRFSGVPDRFSGSGSGTDFTLKISRVEAEDVGVYYCSQNTHVPPTFGQGTKVEIERTVAAPSVFIFPPSDEQLKSGTASVVCLLNNFYPREAKVQWKVDNALQSGNSQESVTEQDSKDSTYSLSSTLTLSKADYEKHKVYACEVTHQGLSSPVTKSFNRGEC |
